Source: patent publication US20250304643A1 (BAINAN BIOTECH, published 2025)
*1 amine or outer side, *2 acyl side, *3 side chain or, on linkers, in order; H or OH if unused. Where no end group is shown, it is not given here. Side-chain parts run from the residue outwards. [ ]: non-standard residue; d: D form. The star is where a group is joined. C16 diacid = O=C(O)CCCCCCCCCCCCCCC(=O)*; γGlu = O=C(O)[C@H](CCC(=O)[*:2])N[*:1]; Palmitoyl = CCCCCCCCCCCCCCCC(=O)*; Aib = CC(C)(N)C(=O)O

T1: rat GIPR (rat, UniProt P43219 19-455)
T1 sequence (looked up): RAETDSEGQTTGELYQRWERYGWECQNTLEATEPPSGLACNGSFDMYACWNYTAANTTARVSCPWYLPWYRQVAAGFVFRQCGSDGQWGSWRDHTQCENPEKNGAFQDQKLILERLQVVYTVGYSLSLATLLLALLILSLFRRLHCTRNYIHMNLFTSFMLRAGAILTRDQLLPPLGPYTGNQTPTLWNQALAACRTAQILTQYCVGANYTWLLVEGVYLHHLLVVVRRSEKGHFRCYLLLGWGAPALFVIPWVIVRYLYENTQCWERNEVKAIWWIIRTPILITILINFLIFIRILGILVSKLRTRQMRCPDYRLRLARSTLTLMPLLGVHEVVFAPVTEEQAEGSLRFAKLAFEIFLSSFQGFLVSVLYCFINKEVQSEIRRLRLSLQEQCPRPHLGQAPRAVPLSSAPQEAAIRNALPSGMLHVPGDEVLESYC


Tests used:
macaque GLP-2R = macaque GLP-2R (macaque); assay: cell-based or functional assay
rat GIPR = molecular target: T1, rat GIPR; assay: cell-based or functional assay

| Efficacy (%) (macaque GLP-2R) | Efficacy (%) (rat GIPR) | pEC50 (rat GIPR) | Binder |
| --- | --- | --- | --- |
| 120% |  |  | Palmitoyl-H[Aib]DGTFISDYST[Aib]LDNLAARDFINWLIQTKITK-OH (SMILES CCCCCCCCCCCCCCCC(=O)N[C@@H](Cc1c[nH]cn1)C(=O)NC(C)(C)C(=O)N[C@@H](CC(=O)O)C(=O)NCC(=O)N[C@H](C(=O)N[C@@H](Cc1ccccc1)C(=O)N[C@H](C(=O)N[C@@H](CO)C(=O)N[C@@H](CC(=O)O)C(=O)N[C@@H](Cc1ccc(O)cc1)C(=O)N[C@@H](CO)C(=O)N[C@H](C(=O)NC(C)(C)C(=O)N[C@@H](CC(C)C)C(=O)N[C@@H](CC(=O)O)C(=O)N[C@@H](CC(N)=O)C(=O)N[C@@H](CC(C)C)C(=O)N[C@@H](C)C(=O)N[C@@H](C)C(=O)N[C@@H](CCCNC(=N)N)C(=O)N[C@@H](CC(=O)O)C(=O)N[C@@H](Cc1ccccc1)C(=O)N[C@H](C(=O)N[C@@H](CC(N)=O)C(=O)N[C@@H](Cc1c[nH]c2ccccc12)C(=O)N[C@@H](CC(C)C)C(=O)N[C@H](C(=O)N[C@@H](CCC(N)=O)C(=O)N[C@H](C(=O)N[C@@H](CCCCN)C(=O)N[C@H](C(=O)N[C@H](C(=O)N[C@@H](CCCCN)C(=O)O)[C@@H](C)O)[C@@H](C)CC)[C@@H](C)O)[C@@H](C)CC)[C@@H](C)CC)[C@@H](C)O)[C@@H](C)CC)[C@@H](C)O) [Compound no. 5] |
|  | 71.7% | 8 | H[Aib]DGK([γGlu-C16 diacid])FISDYST[Aib]LDNLAARDFINWLIQTKITK-OH (N-terminus assumed; SMILES CC[C@H](C)[C@H](NC(=O)[C@H](Cc1ccccc1)NC(=O)[C@H](CCCCNC(=O)CC[C@H](NC(=O)CCCCCCCCCCCCCCC(=O)O)C(=O)O)NC(=O)CNC(=O)[C@H](CC(=O)O)NC(=O)C(C)(C)NC(=O)[C@@H](N)Cc1c[nH]cn1)C(=O)N[C@@H](CO)C(=O)N[C@@H](CC(=O)O)C(=O)N[C@@H](Cc1ccc(O)cc1)C(=O)N[C@@H](CO)C(=O)N[C@H](C(=O)NC(C)(C)C(=O)N[C@@H](CC(C)C)C(=O)N[C@@H](CC(=O)O)C(=O)N[C@@H](CC(N)=O)C(=O)N[C@@H](CC(C)C)C(=O)N[C@@H](C)C(=O)N[C@@H](C)C(=O)N[C@@H](CCCNC(=N)N)C(=O)N[C@@H](CC(=O)O)C(=O)N[C@@H](Cc1ccccc1)C(=O)N[C@H](C(=O)N[C@@H](CC(N)=O)C(=O)N[C@@H](Cc1c[nH]c2ccccc12)C(=O)N[C@@H](CC(C)C)C(=O)N[C@H](C(=O)N[C@@H](CCC(N)=O)C(=O)N[C@H](C(=O)N[C@@H](CCCCN)C(=O)N[C@H](C(=O)N[C@H](C(=O)N[C@@H](CCCCN)C(=O)O)[C@@H](C)O)[C@@H](C)CC)[C@@H](C)O)[C@@H](C)CC)[C@@H](C)CC)[C@@H](C)O) [Compound no. 25] |
